This note sets out measurements from patent publication US20250320281A1.

For test [1], the target named is HIV-1 Env of pseudovirus MGRM-F1-013 (HIV-1). The experiment in a line: cell-based or functional assay.
The target in test [2] is HIV-1 APV-17 envelope glycoprotein (Env) on pseudovirus (HIV-1). As to the kind of experiment: cell-based or functional assay.
Test [3] deals with HIV-1 envelope glycoprotein (Env) of isolate 92RW009, clade A (HIV-1). As to the kind of experiment: cell-based or functional assay.
For test [4], the target named is HIV-1 Env of pseudovirus MGRM-AE-005 (clade CRF01_AE) (HIV-1). The experiment in a line: cell-based or functional assay.
Test [5] addresses HIV-1 Env of pseudovirus 92TH021 (clade CRF01_AE) (HIV-1). As to the kind of experiment: cell-based or functional assay.
The target of test [6] is HIV-1 IAVI_C22 Env on pseudotyped virus (HIV-1 isolate IAVI_C22). As to the kind of experiment: cell-based or functional assay.
For test [7], the target named is HIV-1 92TH021 Env on pseudotyped virus (HIV-1 isolate 92TH021). As to the kind of experiment: cell-based or functional assay.
The target of test [8] is HIV-1 93IN905 Env on pseudotyped virus (HIV-1 isolate 93IN905). As to the kind of experiment: cell-based or functional assay.
Test [9] concerns the target HIV-1 JR-CSF Env on pseudotyped virus (HIV-1 isolate JR-CSF) (UniProt P20871). The experiment in a line: cell-based or functional assay.
In test [10] the target is HIV-1 NL43 Env on pseudotyped virus (HIV-1 NL43). As to the kind of experiment: cell-based or functional assay.
In test [11] the target is HIV-1 Env of isolate MGRM-G-017 (HIV-1). The experiment in a line: cell-based or functional assay.
For test [12], the target named is JR-FL gp120 ΔV1/ΔV2 (HIV-1). The experiment in a line: ELISA, antigen-coated wells. On the technique in general: An ELISA detects its analyte on a solid surface through an enzyme-linked reagent.
The target in test [13] is HIV-1 Env of isolate 92BR020 (subtype B pseudovirus) (HIV-1). As to the kind of experiment: cell-based or functional assay.
In test [14] the target is HIV-1 Env of isolate 92UG005 (pseudovirus) (HIV-1). The experiment in a line: cell-based or functional assay.
Test [15] addresses HIV-1 Env of isolate MGRM-AG-005 (HIV-1). As to the kind of experiment: cell-based or functional assay.
Test [16] concerns the target HIV-1 Env of isolate MGRM-AG-001 (HIV-1). As to the kind of experiment: cell-based or functional assay.
For test [17], the target named is HIV-1 Env of isolate MGRM-AG-013 (HIV-1). As to the kind of experiment: cell-based or functional assay.
Test [18] concerns the target HIV-1 Env of isolate MGRM-AG-006 (HIV-1). As to the kind of experiment: cell-based or functional assay.
Test [19] has as its target HIV-1 Env of isolate MGRM-AG-003 (HIV-1). The experiment in a line: cell-based or functional assay.
Test [20] deals with HIV-1 Env of isolate 93MW959 (HIV-1). As to the kind of experiment: cell-based or functional assay.
The target of test [21] is HIV-1 Env of isolate MGRM-F1-006 (pseudovirus) (HIV-1). The experiment in a line: cell-based or functional assay.
In test [22] the target is HIV-1 Env of isolate MGRM-AG-008 (HIV-1). As to the kind of experiment: cell-based or functional assay.
Test [23] deals with HIV-1 Env of isolate 93IN905 (pseudovirus) (HIV-1). As to the kind of experiment: cell-based or functional assay.
In test [24] the target is HIV-1 Env of isolate MGRM-Chronic-B-010 (subtype B) (HIV-1). As to the kind of experiment: cell-based or functional assay.
For test [25], the target named is HIV-1 Env of isolate 92UG114 (HIV-1). As to the kind of experiment: cell-based or functional assay.

5345_I01 (PGT-137) (antibody), sequence (VH): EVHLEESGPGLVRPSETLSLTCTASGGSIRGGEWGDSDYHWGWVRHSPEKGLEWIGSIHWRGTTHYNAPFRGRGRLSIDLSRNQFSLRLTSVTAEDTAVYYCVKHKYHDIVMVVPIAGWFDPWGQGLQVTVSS
5345_I01 (PGT-137) (antibody), sequence (VL): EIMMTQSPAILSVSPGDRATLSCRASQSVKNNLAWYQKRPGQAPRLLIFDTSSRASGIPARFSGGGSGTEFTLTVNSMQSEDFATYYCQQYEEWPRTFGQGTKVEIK
1443_C16 (PG16) (TCN-116) (antibody), sequence (VH): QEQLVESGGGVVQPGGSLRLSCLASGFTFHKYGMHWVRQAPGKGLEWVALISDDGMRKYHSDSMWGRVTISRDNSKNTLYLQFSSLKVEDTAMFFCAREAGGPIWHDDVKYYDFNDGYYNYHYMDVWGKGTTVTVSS
1443_C16 (PG16) (TCN-116) (antibody), sequence (VL): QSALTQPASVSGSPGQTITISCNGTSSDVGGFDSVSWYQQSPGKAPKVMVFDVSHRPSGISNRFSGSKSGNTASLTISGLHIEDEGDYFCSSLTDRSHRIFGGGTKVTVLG
5329_C19 (PGT-136) (antibody), sequence (VH): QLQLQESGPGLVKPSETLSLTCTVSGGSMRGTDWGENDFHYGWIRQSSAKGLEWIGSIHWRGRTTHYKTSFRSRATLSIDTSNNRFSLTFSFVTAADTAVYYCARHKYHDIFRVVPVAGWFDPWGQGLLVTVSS
5329_C19 (PGT-136) (antibody), sequence (VL): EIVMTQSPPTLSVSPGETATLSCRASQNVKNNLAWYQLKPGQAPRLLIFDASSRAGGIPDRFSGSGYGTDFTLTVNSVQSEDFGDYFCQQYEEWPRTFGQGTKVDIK

Usually IC50 stands for the midpoint of a concentration-inhibition curve. In the case of 2F5 (antibody), the IC50 (µg/ml), pseudovirus neutralization in test [1] is 4.57 µg/mL; in [3] it was 39.1 µg/mL. In test [2], the IC50, pseudovirus neutralization came to 2 µg/mL. In test [4], the IC50 was found to be 0.14 µg/mL.

For the substance 2G12 (antibody), the IC50 (µg/ml), pseudovirus neutralization is over 50 µg/mL in test [1] and 26.1 µg/mL in [3]. The IC50, pseudovirus neutralization in test [2] was over 50 µg/mL. The IC50 in test [5] and in [4] was over 50 µg/mL in each case.

Turning to 1443_C16 (PG16) (TCN-116) (antibody), the Neutralizing Antibody Assay: IC50; Virus/Ab Incubation 1 hour in test [6] was 0.114 µg/mL; in test [7], 0.136 µg/mL; in test [8] it was 0.33 µg/mL; in [9] it was under 0.0025 µg/mL; in test [10] it was under 0.0025 µg/mL. The Neutralizing Antibody Assay: IC50; Virus/Ab Incubation 18 hour was 0.106 µg/mL in [6]; 0.0435 µg/mL in test [7]; 0.255 µg/mL in test [8]; under 0.0025 µg/mL in [9]; 4.99 µg/mL in test [10]. Further, the IC50, pseudovirus neutralization in [2] was over 50 µg/mL. In addition, the IC50 (µg/ml), pseudovirus neutralization in test [3] stood at 0.11 µg/mL. Also, the IC50 was determined as 0.1 µg/mL in [5] and 0.02 µg/mL in test [4].

For 1495_C14 (PGC14) (antibody), the IC50 (µg/ml), pseudovirus neutralization in test [1] was 6 µg/mL; in test [3], over 50 µg/mL. The Neutralizing Antibody Assay: IC50; Virus/Ab Incubation 1 hour in [6] is over 50 µg/mL; in [7], over 50 µg/mL; in [8] it was over 50 µg/mL; in test [9], over 50 µg/mL; in test [10] it was 0.35 µg/mL. Moreover, the Neutralizing Antibody Assay: IC50; Virus/Ab Incubation 18 hour is 13.4 µg/mL in test [6]; over 50 µg/mL in test [7]; 0.146 µg/mL in test [8]; over 50 µg/mL in [9]; 0.15 µg/mL in test [10]. In test [2], this substance displayed an IC50, pseudovirus neutralization of over 50 µg/mL. Moreover, the IC50 in test [5] and in [4] was over 50 µg/mL throughout.

As to 1496_C09 (PG9) (TCN-109) (antibody), the IC50 (µg/ml), pseudovirus neutralization in test [1] stood at 0.56 µg/mL; in test [3] it was 0.03 µg/mL. The Neutralizing Antibody Assay: IC50; Virus/Ab Incubation 1 hour is 24.9 µg/mL in test [6]; 0.0612 µg/mL in [7]; 0.144 µg/mL in test [8]; under 0.0025 µg/mL in [9]; 0.294 µg/mL in test [10]. Besides, the Neutralizing Antibody Assay: IC50; Virus/Ab Incubation 18 hour in [6] is 2.11 µg/mL; in test [7], 0.0571 µg/mL; in [8], 0.0619 µg/mL; in test [9], under 0.0025 µg/mL; in test [10], 38 µg/mL. Also, the IC50 (µg/mL), pseudovirus neutralization in test [11] was 0.104 µg/mL. Further, in test [2], the IC50, pseudovirus neutralization amounted to 26.4 µg/mL. The IC50 in test [5] was 0.09 µg/mL; in test [4], 0.16 µg/mL.

In general, EC50 refers to the concentration at which the effect is half-maximal. A low value points to an effect from little substance. Turning to 4858_P08 (PGT-123) (antibody), in [12], the EC50 amounted to 0.3 µg/mL. For the same substance, the IC50 (µg/mL), pseudovirus neutralization in [13] worked out at 0.008 µg/mL. The IC50, pseudovirus neutralization in test [14] is 9.79 µg/mL; in test [21] it was 6.89 µg/mL. The half-inhibitory concentration (IC50) in [15] was 0.149 µg/mL; in test [16] it was 2.51 µg/mL; in test [17] it was 3.37 µg/mL; in test [18], 0.014 µg/mL; in [19], over 50 µg/mL; in test [22], 19.2 µg/mL. The substance also gave a neutralization IC50 in [20] of 0.011 µg/mL.

As for 4877_D15 (PGT-122) (antibody), in test [12], the EC50 came out at 0.3 µg/mL. Further, in [13], the IC50 (µg/mL), pseudovirus neutralization was found to be 0.021 µg/mL. In addition, the IC50, pseudovirus neutralization in test [14] was over 50 µg/mL; in test [21], 3.27 µg/mL. Also, the IC50 in test [15] is 33.9 µg/mL; in test [16], 14.5 µg/mL; in test [17], 0.521 µg/mL; in test [18], 0.028 µg/mL; in [19], 43.7 µg/mL; in test [22] it was over 50 µg/mL. Also, the neutralization IC50 in test [20] came to 0.016 µg/mL.

With 5123_A06 (PGT-125) (antibody), the EC50 in test [12] was determined as 0.6 µg/mL. Moreover, the IC50 (µg/mL), pseudovirus neutralization in test [13] is 0.016 µg/mL. Moreover, the IC50, pseudovirus neutralization was over 50 µg/mL in test [14] and 0.035 µg/mL in test [21]. Further, the IC50 in [15] is over 50 µg/mL; in test [16], over 50 µg/mL; in test [17], 0.004 µg/mL; in test [18], 0.008 µg/mL; in test [19], over 50 µg/mL; in test [22], over 50 µg/mL. This substance also returned a neutralization IC50 in test [20] of 37.5 µg/mL.

Take 5141_B17 (PGT-126) (antibody): the EC50 in test [12] is 0.3 µg/mL. In addition, the IC50 (µg/mL), pseudovirus neutralization in test [13] came to 0.015 µg/mL. In addition, the figures for the IC50, pseudovirus neutralization in [14] and in [21] were 0.037 µg/mL and 0.078 µg/mL, respectively. In addition, the IC50 in test [15] was 1.21 µg/mL; in test [16], over 50 µg/mL; in [17], 0.008 µg/mL; in [18], 0.01 µg/mL; in [19], over 50 µg/mL; in [22] it was over 50 µg/mL. In [20], this substance registered a neutralization IC50 of 9.44 µg/mL.

5145_B14 (PGT-127) (antibody) showed an EC50 in test [12] of 0.7 µg/mL. This substance also returned an IC50 (µg/mL), pseudovirus neutralization in [13] of 0.059 µg/mL. Moreover, the IC50, pseudovirus neutralization in [14] came out at 1.11 µg/mL; in [21], 7.17 µg/mL. In addition, the IC50 in test [15] was over 50 µg/mL; in [16] it was over 50 µg/mL; in test [17], 0.018 µg/mL; in [18], 0.021 µg/mL; in test [19] it was over 50 µg/mL; in test [22] it was over 50 µg/mL. The substance further showed a neutralization IC50 in test [20] of 6.95 µg/mL.

Regarding 5329_C19 (PGT-136) (antibody), in test [12], the EC50 worked out at 0.3 µg/mL. Besides, the Primary Neutralization Index (B cell culture supernatant) in test [23] came to 5.6. Further, the IC50 neutralization in test [24] was over 50 µg/mL. The substance further came in with an IC50 (µg/mL), pseudovirus neutralization in test [25] of over 50 µg/mL.

5343_B08 (PGT-135) (antibody): the EC50 in test [12] is 0.1 µg/mL. This substance also had a Primary Neutralization Index (B cell culture supernatant) in [23] of 43. The substance also gave an IC50 neutralization in test [24] of over 50 µg/mL. In addition, the IC50 (µg/mL), pseudovirus neutralization in [25] is 1.29 µg/mL.

For the substance 5345_I01 (PGT-137) (antibody), the concentration for a half-maximal effect (EC50) in test [12] amounted to 0.2 µg/mL. Also, the Primary Neutralization Index (B cell culture supernatant) in [23] was 3.3. Moreover, in [24], the IC50 neutralization is over 50 µg/mL. This substance came in with an IC50 (µg/mL), pseudovirus neutralization in test [25] of over 50 µg/mL.

For b12 (antibody), the IC50 (µg/ml), pseudovirus neutralization in test [1] and in test [3] was over 50 µg/mL throughout. The substance further yielded an IC50, pseudovirus neutralization in test [2] of over 25 µg/mL. Also, the IC50 in test [4] is 0.63 µg/mL.
